Substitutions are numbered along the chain they refer to.

The values that follow come from patent US20260028421A1 (JIANGSU HENGRUI PHARMACEUTICALS, published 2026).

The target in assay [1] is hIL5 (human, UniProt P05113 20-134). Kind of assay: ELISA.
The target in assay [2] is hTSLP (human, UniProt Q969D9 29-159). In words: ELISA. On the technique in general: An ELISA detects its analyte on a solid surface through an enzyme-linked reagent.

B1: HJ-3 (bispecific antibody)
chain 1: not shown
chain 2: DIQMTQSPSSVSASVGDRVTITCRASQDIANYLSWYQQKPGKSPKLLIYGTSNLEVGVPSRFSGSRSGTDFTLTISSLQPEDFATYYCLQDKEFPRTFGGGTKVEIKGGGGSSGAPRFLTRPLAFVVSVGKDATLSSQIVGNPTPQVSWEKDKQPVTAGARFRLAQDGDLYRLKILDLQLSDSGQYVSRARNAIGEAFACLGLQVDAEA
chain 3: EVQLVQSGAEVKKPGSSVKVSCKASGYTFSNYLIEWVRQAPGQGLEWIGVIDPGVGDTNYNENFKGRATLTADKSTSTAYIELSSLRSEDTAVYYCAREDNTGTAFDYWGQGTTVTVSSASTKGPSVFPLAPSSKSTSGGTAALGCLVKDYFPEPVTVSWNSGALTSGVHTFPAVLQSSGLYSLSSVVTVPSSSLGTQTYICNVNHKPSNTKVDKKVEPKSCDKTHTCPPCPAPEAAGGPSVFLFPPKPKDTLMISRTPEVTCVVVDVSHEDPEVKFNWYVDGVEVHNAKTKPREEQYNSTYRVVSVLTVLHQDWLNGKEYKCKVSNKALPAPIEKTISKAKGQPREPQVCTLPPSREEMTKNQVSLSCAVKGFYPSDIAVEWESNGQPENNYKTTPPVLDSDGSFFLVSKLTVDKSRWQQGNVFSCSVMHEALHNHYTQKSLSLSPGKDYKDDDDK
chain 4: SIVMTQTPLSLSVTPGQPASISCKASQSVSSDVTWYLQKPGQSPQLLIYYVSEHYTGVPDRFSGSGYGTDFTLKISRVEAEDVGVYYCQQHHRFPLTFGQGTKLEIKRTVAAPSVFIFPPSDEQLKSGTASVVCLLNNFYPREAKVQWKVDNALQSGNSQESVTEQDSKDSTYSLSSTLTLSKADYEKHKVYACEVTHQGLSSPVTKSFNRGEC
By EC50 is commonly meant the concentration needed to bring the measured effect to its halfway point. As to B1, the EC50 in assay [1] was 17.4 nM; in assay [2], 3.23 nM.

B2: HJ-7 (bispecific antibody)
chain 1: not shown
chain 2: B1 chain 2 with L123K, F125S, S137C, T144F, A160V, S188C, I194H
chain 3: EVQLVQSGAEVKKPGSSVKVSCKASGYTFSNYLIEWVRQAPGQGLEWIGVIDPGVGDTNYNENFKGRATLTADKSTSTAYIELSSLRSEDTAVYYCAREDNTGTAFDYWGQGTTVTVSSASTKGPSVFPLAPSSKSTSGGTAALGCLVKDYFPEPVTVSWNSGALTSGVHTFPAVLQSSGLYSLSSVVTVPSSSLGTQTYICNVNHKPSNTKVDKKVEPKSCDKTHTCPPCPAPEAAGGPSVFLFPPKPKDTLMISRTPEVTCVVVDVSHEDPEVKFNWYVDGVEVHNAKTKPREEQYNSTYRVVSVLTVLHQDWLNGKEYKCKVSNKALPAPIEKTISKAKGQPREPQVCTLPPSREEMTKNQVSLSCAVKGFYPSDIAVEWESNGQPENNYKTTPPVLDSDGSFFLVSKLTVDKSRWQQGNVFSCSVMHEALHNHYTQKSLSLSPGK
chain 4: B1 chain 4
Turning to B2, the EC50 in assay [1] turned out to be 17.7 nM; in assay [2], 2.18 nM.

B3: HJ-8 (bispecific antibody)
chain 1: not shown
chain 2: B1 chain 2 with G108R, G109T, G110V, G111A, L123K, F125S, T144F, A160V, I194H
chain 3: B2 chain 3
chain 4: B1 chain 4
As to B3, the EC50 in assay [1] came out at 18.7 nM; in assay [2], 3.33 nM.

B4: HJ-5 (bispecific antibody)
chain 1: not shown
chain 2: B1 chain 2 with L123K, F125S, T144F, A160V, I194H
chain 3: B2 chain 3
chain 4: B1 chain 4
With B4, the EC50 was 16 nM in assay [1] and 2.64 nM in assay [2].

B5: HJ-9 (bispecific antibody)
chain 1: not shown
chain 2: B1 chain 2 with G108R, G109T, G110V, G111A, R121C, L123K, F125S, T144F, A160V, I194H
chain 3: B2 chain 3
chain 4: B1 chain 4
Regarding B5, the EC50 is 10.9 nM in assay [1] and 3.18 nM in assay [2].

B6: HJ-6 (bispecific antibody)
chain 1: not shown
chain 2: B1 chain 2 with R121C, L123K, F125S, T144F, A160V, I194H
chain 3: B2 chain 3
chain 4: B1 chain 4
For the molecule B6, the EC50 in assay [1] amounted to 37 nM; in assay [2], 2.88 nM.

B7: HJ-10 (bispecific antibody)
chain 1: not shown
chain 2: DIQMTQSPSSVSASVGDRVTITCRASQDIANYLSWYQQKPGKSPKLLIYGTSNLEVGVPSRFSGSRSGTDFTLTISSLQPEDFATYYCLQDKEFPRTFGGGTKVEIKRTVASSGAPRFLTRPKASVVSVGKDATLSCQIVGNPFPQVSWEKDKQPVTAGVRFRLAQDGDLYRLKILDLQLSDSGQYVCRARNAHGEAFACLGLQVDAEA
chain 3: B2 chain 3
chain 4: B1 chain 4
As to B7, the concentration giving a half-maximal response (EC50) in assay [1] turned out to be 20.8 nM; in assay [2], 3.17 nM.
